Experiment [1] addresses Toc75 POTRA-His (protein fragment encompassing all three Toc75 POTRA domains and a C-terminal hexahistidine tag) (Arabidopsis thaliana) (UniProt Q9STE8). Put plainly: pull-down; solid phase binding: increasing amounts of POTRA-His immobilised on Ni-NTA resin, incubated with in vitro translated 35S-labelled proteins in HMK buffer (50 mM Hepes-KOH pH 7.5, 2 mM MgCl2, 40 mM KOAc) with 10 mM imidazole and 0.1% Triton X-100, 30 min, 23°C; phosphorimaging.

In experiment [2] the target is TOC translocons in TOC75 chloroplasts (Arabidopsis thaliana | Arabidopsis thaliana (endogenous in chloroplasts)) (UniProt Q9STE8). The experiment in a line: saturation binding to isolated chloroplasts; apparent; increasing amounts of urea-denatured preSSU-FLAG-HIS with 10^7 isolated chloroplasts, 0.1 mM ATP and GTP, 26°C, 5 min (early import intermediate); chloroplasts reisolated through Percoll, anti-FLAG immunoblot, non-linear regression. A general note: A western blot detects proteins with antibodies after separation by electrophoresis.

Experiment [3] has as its target TOC translocons in TOC75ΔP1#2 chloroplasts (Arabidopsis thaliana | Arabidopsis thaliana (endogenous in chloroplasts)) (UniProt Q9STE8). The experiment is described as above.
The target in experiment [4] is TOC translocons in TOC75ΔP1-2#2 chloroplasts (Arabidopsis thaliana | Arabidopsis thaliana (endogenous in chloroplasts)) (UniProt Q9STE8). The experiment in a line: other; apparent Kd, isolated chloroplasts, 0.1 mM ATP and GTP. As to conditions: natural protein.

In turn, “[35S]preSSU (from UniProt P10795 1-180) (natural protein)” came in with a maximum binding, percent of added radiolabeled protein in experiment [1] of 77%.
Take “preSSU-FLAG-HIS (from UniProt P10795 55-180) (natural protein)”: the Kd is 159 nM in experiment [2] and 188 nM in experiment [3].
As to “preSSU-FLAG-HIS (from UniProt P10795 55-180)”, the Kd in experiment [4] is 126 nM.

The values are drawn from paper PMC4811774.
